Conditions in all cases: 20 nM; 72 h
In data set [1] the test system is MCF10A. Kind of data set: percent viability (nuclei count relative to siNT); higher = more viable cells. On the procedure:
(§1)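 After 72 h, cells were fixed and stained with Hoechst and anti-fibrillarin, and nucleoli per nucleus were counted with CellProfiler. Values are plate-adjusted percent effect for the one-nucleolus and 5+ nucleoli phenotypes, normalised to siNT (0%) and to the positive controls siNOL11 or siKIF11 (100%), as the mean of biological triplicates. Percent viability is the nuclei count relative to siNT.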

Data set [2] concerns MCF10A. As to the kind of experiment: 5+ nucleoli phenotype percent effect (relative to siNT 0% and siKIF11 100%); higher = more cells with five or more nucleoli. The method, then: as §1
The subject of data set [3] is MCF10A. Kind of data set: one-nucleolus phenotype percent effect (relative to siNT 0% and siNOL11 100%); higher = more cells with one nucleolus (ribosome biogenesis inhibition). The method, then:
as §1

For “AGCUACAUUGUCUGCUGGGUUUC [hsa-miR-221-3p]”, the percent viability in data set [1] worked out at 59.9%. In data set [2], the “5+ nucleoli phenotype percent effect” value was -17.8%. Also, the “one-nucleolus phenotype percent effect” value in data set [3] worked out at 4%.
On the same counts, the results for “AGCUCCCUGAAUCCCUGUCCCAG [hsa-miR-7106-3p]” are 74.6%, 32.5% and -19.5%.
“AGCUCGGUCUGAGGCCCCUCAGU [hsa-miR-423-3p]”: the percent viability in data set [1] amounted to 56.6%. Moreover, the “5+ nucleoli phenotype percent effect” value in data set [2] is -11.8%. The “one-nucleolus phenotype percent effect” value in data set [3] is 19.5%.
For “AGCUCUAGAAAGAUUGUUGACC [hsa-miR-6502-5p]”, in data set [1], the percent viability turned out to be 93.5%. The “5+ nucleoli phenotype percent effect” value in data set [2] was 66.5%. In addition, the “one-nucleolus phenotype percent effect” value in data set [3] was -17.4%.
On the same counts, the results for “AGCUCUGCUGCUCACUGGCAGU [hsa-miR-3194-3p]” are 22.1%, 6.75% and 1.77%.
Regarding AGCUGAGCUCCAUGGACGUGCAGU [hsa-miR-4663], in data set [1], the percent viability was determined as 67%. Also, the “5+ nucleoli phenotype percent effect” value in data set [2] is 16.3%. Also, the “one-nucleolus phenotype percent effect” value in data set [3] was -21.4%.
On the same counts, the results for “AGCUGGUAAAAUGGAACCAAAU [hsa-miR-133a-5p]” are 30.7%, -4.69% and 7.21%.
On the same counts, the results for “AGCUGGUGUUGUGAAUCAGGCCG [hsa-miR-138-5p]” are 21.6%, -24.6% and 13.5%.
On the same counts, the results for “AGCUGUAAUUAGUCAGUUUUCU [hsa-miR-1537-5p]” are 117%, 31.8% and -20.9%.
On to AGCUGUACCUGAAACCAAGCA [hsa-miR-4718], for which the percent viability in data set [1] is 77.5%. Also, in data set [2], the “5+ nucleoli phenotype percent effect” value was -2.07%. Also, the “one-nucleolus phenotype percent effect” value in data set [3] is 9.98%.
For AGCUGUCUGAAAAUGUCUU [hsa-miR-626], the percent viability in data set [1] stood at 50.2%. In addition, the “5+ nucleoli phenotype percent effect” value in data set [2] stood at 25.1%. In addition, the “one-nucleolus phenotype percent effect” value in data set [3] came out at 2.9%.
On to “AGCUGUCUGUGUUUUCCUUCUCAG [hsa-miR-6876-3p]”, for which, in data set [1], the percent viability stood at 58.5%. The “5+ nucleoli phenotype percent effect” value in data set [2] is -19.1%. Besides, the “one-nucleolus phenotype percent effect” value in data set [3] turned out to be 6.32%.
On the same counts, the results for “AGCUUCCAUGACUCCUGAUGGA [hsa-miR-2115-5p]” are 137%, -3.91% and -7.01%.
For “AGCUUCUUUACAGUGCUGCCUUG [hsa-miR-103a-2-5p]”, the percent viability in data set [1] came out at 36.7%. The “5+ nucleoli phenotype percent effect” value in data set [2] is -36.6%. The “one-nucleolus phenotype percent effect” value in data set [3] was determined as 7.49%.
On the same counts, the results for AGGAAACAGGGACCCA [hsa-miR-4261] are 32.1%, -16.8% and 37.1%.
On the same counts, the results for AGGAAAUGAGGCUGGCUAGGAGC [hsa-miR-5093] are 25.8%, 0.0169% and 23.8%.
For “AGGAAGCAAGAGAACCCUGUGG [hsa-miR-6828-5p]”, in that order: 26.9%, -41.5% and 18.9%.
“AGGAAGCCCUGGAGGGGCUGGAG [hsa-miR-671-5p]”: the percent viability in data set [1] was found to be 45.3%. For the same sequence, in data set [2], the “5+ nucleoli phenotype percent effect” value is -27.7%. In data set [3], the “one-nucleolus phenotype percent effect” value came out at 58.7%.
For AGGAAUGUUCCUUCUUUGCC [hsa-miR-613], in that order: 44.4%, -37.9% and 36.5%.
For AGGACCUGCGGGACAAGAUUCUU [hsa-miR-492], in that order: 49%, -18.8% and 9.32%.
With AGGACCUUCCCUGAACCAAGGA [hsa-miR-659-5p], the percent viability in data set [1] worked out at 40.3%. In addition, the “5+ nucleoli phenotype percent effect” value in data set [2] is -33.7%. Moreover, the “one-nucleolus phenotype percent effect” value in data set [3] turned out to be 34.3%.
Regarding “AGGACUGAUCCUCUCGGGCAGG [hsa-miR-4740-5p]”, the percent viability in data set [1] amounted to 24.1%. Further, the “5+ nucleoli phenotype percent effect” value in data set [2] was -14.8%. Besides, the “one-nucleolus phenotype percent effect” value in data set [3] was 47.7%.
Take AGGACUGGACUCCCGGCAGCCC [hsa-miR-4515]: the percent viability in data set [1] was determined as 37.2%. Further, the “5+ nucleoli phenotype percent effect” value in data set [2] is -14.9%. For the same sequence, the “one-nucleolus phenotype percent effect” value in data set [3] is 15.9%.
For AGGAGAAGUAAAGUAGAA [hsa-miR-4434], in that order: 74.7%, 49.4% and -15.7%.
On the same counts, the results for AGGAGAAGUCGGGAAGGU [hsa-miR-5703] are 30.6%, 33.6% and -5.15%.
On the same counts, the results for AGGAGAGUGGAUUCCAGGUGGU [hsa-miR-5192] are 24.2%, 20.1% and 10.4%.
In the case of AGGAGAUCCUGGGUU [hsa-miR-3676-5p], the percent viability in data set [1] was found to be 30.1%. For the same sequence, in data set [2], the “5+ nucleoli phenotype percent effect” value is -13.3%. The “one-nucleolus phenotype percent effect” value in data set [3] turned out to be 18.3%.
On the same counts, the results for “AGGAGCUAGCCAGGCAUAUGCA [hsa-miR-4633-3p]” are 15.3%, -40.1% and 37.9%.
For AGGAGGAAUUGGUGCUGGUCUU [hsa-miR-766-5p], in that order: 5.17%, -33% and 33.8%.
For AGGAGGACAAGUUGUGGGAU [hsa-miR-7154-3p], in that order: 7.01%, -9.57% and 39.7%.
Take “AGGAGGAUGGAGAGCUGGGCCAGA [hsa-miR-6894-5p]”: the percent viability in data set [1] stood at 28.1%. Moreover, in data set [2], the “5+ nucleoli phenotype percent effect” value worked out at 6.67%. Further, in data set [3], the “one-nucleolus phenotype percent effect” value turned out to be 22.2%.
For AGGAGGCAGCGCUCUCAGGAC [hsa-miR-650], in that order: 33.8%, -3.4% and 23.2%.
For AGGAGGCAUCUUGAGAAAUGGA [hsa-miR-3612], in that order: 16.9%, 5.34% and 33.4%.
In the case of “AGGAGGGAAGGGGCUGAGAACAGGA [hsa-miR-6797-5p]”, the percent viability in data set [1] was found to be 80.7%. Moreover, the “5+ nucleoli phenotype percent effect” value in data set [2] stood at 33.9%. In data set [3], the “one-nucleolus phenotype percent effect” value was -10.1%.
For “AGGAGGGAGGAGAUGGGCCAAGUU [hsa-miR-1249-5p]”, in that order: 11.3%, -22.4% and 45.9%.
“AGGAGGUGGUACUAGGGGCCAGC [hsa-miR-6851-5p]”: in data set [1], the percent viability came to 15.2%. Besides, the “5+ nucleoli phenotype percent effect” value in data set [2] is -20.3%. Also, the “one-nucleolus phenotype percent effect” value in data set [3] is 31.8%.
For AGGAUAGGAAGAAUGAAGUGCU [hsa-miR-5191], in that order: 40.6%, -7.65% and 14.1%.
On the same counts, the results for AGGAUGAGCAAAGAAAGUAGAUU [hsa-miR-1255a] are 128%, 55.6% and -24.4%.
On the same counts, the results for AGGAUUUCAGAAAUACUGGUGU [hsa-miR-3167] are 49.1%, -10.4% and -14.6%.
AGGCAAGAUGCUGGCAUAGCU [hsa-miR-31-5p]: the percent viability in data set [1] came out at 16.8%. Besides, the “5+ nucleoli phenotype percent effect” value in data set [2] was -4.74%. Further, the “one-nucleolus phenotype percent effect” value in data set [3] is 26%.
“AGGCACCAGCCAGGCAUUGCUCAGC [hsa-miR-593-5p]”: the percent viability in data set [1] was 40.2%. The “5+ nucleoli phenotype percent effect” value in data set [2] is -0.886%. Also, the “one-nucleolus phenotype percent effect” value in data set [3] was found to be 12.3%.
On the same counts, the results for AGGCACGGUGUCAGCAGGC [hsa-miR-564] are 67.8%, -12.9% and 11.4%.
On the same counts, the results for AGGCAGCGGGGUGUAGUGGAUA [hsa-miR-885-3p] are 19.2%, -36.7% and 61.2%.
As to “AGGCAGGGGCUGGUGCUGGGCGGG [hsa-miR-4763-3p]”, in data set [1], the percent viability amounted to 52.2%. In data set [2], the “5+ nucleoli phenotype percent effect” value is 5.7%. Further, the “one-nucleolus phenotype percent effect” value in data set [3] is 9.32%.
For AGGCAGGUUAUCUGGGCUG [hsa-miR-4736], in that order: 12%, 13.2% and 19.8%.
On the same counts, the results for “AGGCAGUGUAGUUAGCUGAUUGC [hsa-miR-34c-5p]” are 13.2%, -6.79% and 38.8%.
On the same counts, the results for “AGGCAGUGUAUUGUUAGCUGGC [hsa-miR-449b-5p]” are 128%, 36.8% and -25.7%.
In the case of AGGCAUGGGAGGUCAGGUGA [hsa-miR-3622b-5p], the percent viability in data set [1] is 16.5%. Besides, the “5+ nucleoli phenotype percent effect” value in data set [2] was -30.6%. The “one-nucleolus phenotype percent effect” value in data set [3] was found to be 32.5%.

For the origin of these results see the supplement of paper PMC10899765.
